Assay results reported in the supplement of paper PMC9732359.
± gives the uncertainty stated by the source.

Test: protein stability index of a GFP-peptide fusion (yeast GPS) (PSI 1-4); higher = more stable; sorted into four equal gates, so the index is relative within each strain
Summary of the method: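 Peptides tiling yeast proteins in 17-residue segments were fused downstream of GFP, with Cherry expressed from the same plasmid. As a pooled library in yeast, mid-log cultures grown in leucine-free medium were sorted into four equal gates by GFP/Cherry fluorescence ratio. Gate plasmids were PCR-amplified and Illumina-sequenced, and barcodes linked reads to strains. Each peptide received a protein stability index equal to the sum of each gate's read frequency times its gate number.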

| Sequence | protein stability index (doa10∆) | protein stability index (pdr5∆) | protein stability index (san1∆) | protein stability index (ubr1∆) |
| --- | --- | --- | --- | --- |
| NAQSKLSLTLNTHYHAD [SNF2] | 2.76 ± 0.096 | 2.81 ± 0.11 | 2.73 ± 0.13 | 3.09 ± 0.085 |
| HVLVGDLIKFSAETLSE [FAS1] | 2.38 ± 0.1 | 2.78 ± 0.1 | 2.67 ± 0.1 | 2.79 ± 0.089 |
| DPFKTSSFNKRSKFLST [IRR1] | 2.15 ± 0.074 | 2.46 ± 0.053 | 2.04 ± 0.082 | 2.12 ± 0.057 |
| QIFVRGSQIKFIVVPDL [SMD3] | 1.8 ± 0.071 | 2.35 ± 0.06 | 2.05 ± 0.064 | 2.02 ± 0.066 |
| NGFHGRLGDLGVIDDSF [SMC4] | 3.51 ± 0.17 | 3.35 ± 0.11 | 3.11 ± 0.12 | 3.46 ± 0.057 |
| FVDLVEHFLKLNIDFGS [YML103C/NUP188] | 2.53 ± 0.067 | 2.46 ± 0.06 | 2.54 ± 0.11 | 2.84 ± 0.094 |
| LKKIASIPNLFPTDLEI [SWI1] | 2.59 ± 0.051 | 2.69 ± 0.044 | 2.55 ± 0.053 | 2.64 ± 0.036 |
| MSESSDISAMQPVNPKP [SMX3] | 3.42 ± 0.15 | 3.51 ± 0.16 | 3.4 ± 0.12 | 3.17 ± 0.14 |
| ADVTHFVKPGTALDAEG [DIS3] | 2.9 ± 0.094 | 3.33 ± 0.2 | 3.04 ± 0.076 | 3.08 ± 0.081 |
| TESPLKTVDSSIQPIES [SSN2] | 2.99 ± 0.066 | 2.93 ± 0.053 | 2.91 ± 0.053 | 2.93 ± 0.03 |
| VKCEELSNTLACYRTIM [RRP40] | 2.24 ± 0.069 | 2.49 ± 0.093 | 2.01 ± 0.087 | 2.57 ± 0.075 |
| GTCFGGSKLEDMSKILV [RET1] | 3.04 ± 0.074 | 3.3 ± 0.096 | 3.36 ± 0.065 | 3.45 ± 0.056 |
| ICGYTRKEGPTIYYVDS [PRE2] | 3.36 ± 0.095 | 3.24 ± 0.081 | 3.42 ± 0.042 | 2.84 ± 0.069 |
| IALLTLKESVEGEFNGD [PRE8] | 2.77 ± 0.21 | 2.77 ± 0.17 | 2.64 ± 0.15 | 2.75 ± 0.11 |
| LSRGDDEVTIRRTVGLK [SMC3] | 3.17 ± 0.096 | 2.73 ± 0.083 | 2.77 ± 0.078 | 2.55 ± 0.063 |
| SAARGLSLVYEIGGSDL [ECM29] | 2.18 ± 0.058 | 1.94 ± 0.065 | 3.33 ± 0.067 | 1.73 ± 0.056 |
| IPNRRFTLWWSPTINRA [PRP8] | 2.65 ± 0.069 | 2.28 ± 0.065 | 1.65 ± 0.052 | 2.29 ± 0.047 |
| MENDKGQLVELYVPRKC [RPS21A] | 3.17 ± 0.14 |  | 3.23 ± 0.12 | 3.25 ± 0.091 |
| GQEYPRIIGLSATLPNY [BRR2] | 1.9 ± 0.047 | 2.2 ± 0.044 | 1.96 ± 0.057 | 1.81 ± 0.046 |
| YVTKPMVNESDGVTHAL [RPB2] | 3.2 ± 0.088 | 3.28 ± 0.087 | 2.94 ± 0.081 | 3.36 ± 0.082 |
| MSAKAEKKPASKAPAEK [HTB1] | 3.51 ± 0.13 | 3.41 ± 0.12 | 3.16 ± 0.12 | 2.89 ± 0.098 |
| VIYRNSLYKVSFLEKPK [YMR129W/POM152] | 2.49 ± 0.065 | 2.61 ± 0.081 | 2.42 ± 0.073 | 2.43 ± 0.12 |
| SKRWAQRTLSKSFYSTA [CYT1] | 1.69 ± 0.052 | 2.32 ± 0.054 | 2.19 ± 0.063 | 2.22 ± 0.06 |
| ALYPQEARLRNLTYSSG [RPB2] | 2.39 ± 0.093 | 2.73 ± 0.1 | 2.75 ± 0.085 | 2.49 ± 0.089 |
| ALPRGARTATVSKKWAA [RPL14A] | 2.25 ± 0.067 | 2.23 ± 0.065 | 1.96 ± 0.1 | 2.14 ± 0.056 |
| MQGKITKVLNMKPSEIL [SMC2] | 2.48 ± 0.25 | 2.88 ± 0.18 |  |  |
| NIYNFSPSERIEPLEIN [BRR2] | 2.39 ± 0.064 | 2.78 ± 0.051 | 1.93 ± 0.056 | 2.2 ± 0.05 |

| Sequence | protein stability index (doa10∆) | protein stability index (pdr5∆) | protein stability index (san1∆) | protein stability index (ubr1∆) |
| --- | --- | --- | --- | --- |
| SVVAKQLLNGQKIVVVR [RPL16A] | 1.25 ± 0.049 | 1.36 ± 0.053 | 1.62 ± 0.11 | 1.24 ± 0.057 |
| NVRVGQAVETVGQAGRP [RPN1] | 2.4 ± 0.11 | 3.14 ± 0.092 | 3.19 ± 0.072 | 3.02 ± 0.1 |
| SGYGKRKGTREARLPSQ [RPL19A] |  | 3.29 ± 0.28 |  | 3.49 ± 0.26 |
| VSADDFVEEQNVYVLPK [PRP8] | 3.44 ± 0.099 | 3.18 ± 0.11 | 3.07 ± 0.12 | 3.32 ± 0.083 |
| NYGIVELDPECQLQNSD [RRP43] | 2.96 ± 0.075 | 3.01 ± 0.062 | 2.93 ± 0.054 | 3.02 ± 0.078 |
| EAAKLLVDSLATFTSIE [RPN7] | 3.24 ± 0.18 | 3.1 ± 0.098 | 3.24 ± 0.096 | 2.68 ± 0.096 |
| VLKFTFTGEKPIITGST [MED8] | 2.01 ± 0.082 | 2.18 ± 0.074 | 2.04 ± 0.12 | 2.07 ± 0.062 |
| GPGFKFVDLNEKELQNE [SRB4] | 2.64 ± 0.17 |  |  | 2.85 ± 0.14 |
| MGKGTPSFGKRHNKSHT [RPL37A] | 3.24 ± 0.089 | 3.4 ± 0.067 | 3.1 ± 0.077 | 3.02 ± 0.069 |
| LAKPVFHVGFIAKIKKV [RPO21] | 1.21 ± 0.053 | 2.15 ± 0.067 | 1.78 ± 0.073 | 2.02 ± 0.06 |
| NVEESVSKADILLSHHR [POP5] | 3.16 ± 0.19 |  | 2.91 ± 0.086 | 3.03 ± 0.1 |
| RRRKGISTGGFMSNDGP [SNU114] | 1.46 ± 0.086 | 1.47 ± 0.1 | 1.18 ± 0.14 | 1.33 ± 0.063 |
| KFSERRKALPKEPKKLL [DSN1] | 2.33 ± 0.069 | 2.88 ± 0.081 | 2.52 ± 0.11 | 2.87 ± 0.053 |
| SLELQSFQKIPLSRINE [YML103C/NUP188] | 2.67 ± 0.12 | 2.82 ± 0.11 | 2.94 ± 0.07 | 2.88 ± 0.12 |
| AGVVQDIGSDPTLPRSD [RPB9] | 2.83 ± 0.078 | 3.2 ± 0.093 | 2.9 ± 0.061 | 2.94 ± 0.047 |
| HINSILLARVIQMNNSL [SNF11] | 2.22 ± 0.13 | 1.94 ± 0.11 | 1.96 ± 0.12 | 1.7 ± 0.092 |
| NSLIEEINERSETQTKD [YCG1] | 3.07 ± 0.12 | 3.33 ± 0.12 | 3.17 ± 0.087 | 2.97 ± 0.1 |
| ESHIDSRNNTLNVTPSK [SIR4] | 2.77 ± 0.045 | 2.62 ± 0.038 | 2.75 ± 0.046 | 2.63 ± 0.033 |
| KDFLKAVDKVISGYKKF [RPT1] | 3.21 ± 0.074 | 3.38 ± 0.09 | 3.12 ± 0.092 | 3.33 ± 0.051 |
| VFGASDKQAEGTPLFTF [YOR098C/NUP1] | 2.83 ± 0.074 | 2.86 ± 0.087 | 3 ± 0.097 | 3.21 ± 0.081 |
| IPGLSAGVNNDNTKESK [RTT102] | 3.59 ± 0.11 | 3.52 ± 0.083 | 3.38 ± 0.071 | 3.35 ± 0.081 |
| DANLNDLPETGFFENIE [IRR1] | 3.13 ± 0.2 | 3.24 ± 0.13 | 3.35 ± 0.1 | 3.27 ± 0.12 |
| IKNISNRVGLTLDNIDD [ARP9] | 2.65 ± 0.24 | 3.03 ± 0.11 | 3.16 ± 0.091 | 3.32 ± 0.073 |
| EGLTYKYPARRIHTNDN [SSN3] | 2.78 ± 0.072 | 2.89 ± 0.073 | 2.86 ± 0.076 | 2.83 ± 0.055 |
| LKKLKAMNDACYEKVLE [BRR2] | 3.18 ± 0.074 | 3.26 ± 0.061 | 3.12 ± 0.039 | 3.05 ± 0.058 |
| EHWKVRNFKKANLVNKE [BRN1] | 2.06 ± 0.1 | 1.5 ± 0.051 | 1.54 ± 0.13 | 1.83 ± 0.05 |
